The data set is described as follows: self-splicing fitness, log relative to wild type (ln ratio); higher = more splicing; Tetrahymena group I intron in knt gene, E. coli kanamycin selection, DiMSum; sequences stand for … in CUCUCU…GGAGGGAAAAGUUAUCAGGCAUGCACCUGGUAGCUAGUCUUUAAACCAAUAGAUUGCAUCGGUUUAAAAGGCAAGACCGUCAAAUUGCGGGAAAGGGGUCAACAGCCGUUCAGUACCAAGUCUCAGGGGAAACUUUGAGAUGGCCUUGCAAAGGGUAUGGUAAUAAGCUGACGGACAUGGUCCUAACCACGCAGCCAAGUCCUAAGUCAACAGAUCUUCUGUUGAUAUGGAUGCAGUUCACAGACUAAAUGUCGGUCGGGGAAGAUGUAUUCUUCUCAUAAGAUAUAGUCGGACCUCUCCUUAAUGGGAGCUAGCGGAUGAAGUGAUGCAACACUGGAGCCGCUGGGAACUAAUUUGUAUGCGAAAGUAUAUUGAUUAGUUUUGGAGUACUCGUGGUCG
The essentials: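 Six replicate transformations of E. coli BL21(DE3) with a pET-22b(+) library were grown overnight at 37°C or 30°C. The library randomised all eight P1ex-region intron nucleotides, the intron lying in the knt kanamycin-resistance gene, and plates were LB agar with or without 25 μg/mL kanamycin plus 100 μg/mL carbenicillin, 50 μM IPTG and 0.2% rhamnose. Pooled colonies were amplicon-sequenced on an Illumina HiSeq 2500, and fitness is the DiMSum error-weighted combination of wild-type-normalised replicate fold changes, kanamycin versus none.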

From the supplement of paper PMC7877785 come the findings set out here.

± gives the uncertainty stated by the source.

On to CUAAAGCAAUAUUACGUAGA, for which the “self-splicing fitness (ln)” value is -3.64 ± 0.19 (30 °C) and -4.04 ± 0.46 (37 °C).

With CUAAAGCAAUAUUACGUAGG, the “self-splicing fitness (ln)” value by setting is: (30 °C) -1.15 ± 0.088; (37 °C) -1.2 ± 0.11.

Consider CUAAAGCAAUAUUACGUAUG, for which the “self-splicing fitness (ln)” value runs as follows: (30 °C) -0.125 ± 0.059; (37 °C) 0.0627 ± 0.081.

For CUAAAGCAAUAUUACGUUGA, the “self-splicing fitness (ln)” value (30 °C) is -4.09 ± 0.23 and the “self-splicing fitness (ln)” value (37 °C) is -2.6 ± 0.29.

As for CUACAGCAAUAUUACGAGCG, the “self-splicing fitness (ln)” value by setting is: (30 °C) -0.282 ± 0.076; (37 °C) -0.442 ± 0.1.

Regarding CUACAGCAAUAUUACGAGCU, the “self-splicing fitness (ln)” value (30 °C) is -3.01 ± 0.21 and the “self-splicing fitness (ln)” value (37 °C) is -2.19 ± 0.19.

With CUACAGCAAUAUUACGCAAC, the “self-splicing fitness (ln)” value is, setting by setting: (30 °C) -3.66 ± 0.36; (37 °C) -3.03 ± 0.29.

In the case of CUACAGCAAUAUUACGCAAG, the “self-splicing fitness (ln)” value is, setting by setting: (30 °C) -2.61 ± 0.15; (37 °C) -1.45 ± 0.19.

Take CUACAGCAAUAUUACGCACU: the “self-splicing fitness (ln)” value is, setting by setting: (30 °C) -3.52 ± 0.21; (37 °C) -3.03 ± 0.4.

For the sequence CUACAGCAAUAUUACGCAGG, the “self-splicing fitness (ln)” value is -2.62 ± 0.13 (30 °C) and -3.06 ± 0.24 (37 °C).

For the sequence CUACAGCAAUAUUACGCCGA, the “self-splicing fitness (ln)” value is, setting by setting: (30 °C) -2.29 ± 0.18; (37 °C) -3.15 ± 0.43.

Turning to CUACAGCAAUAUUACGCCGC, the “self-splicing fitness (ln)” value (30 °C) was -3.76 ± 0.22 and the “self-splicing fitness (ln)” value (37 °C) was -3.62 ± 0.39.

In the case of CUACAGCAAUAUUACGCGGG, the “self-splicing fitness (ln)” value (30 °C) is -2.27 ± 0.094 and the “self-splicing fitness (ln)” value (37 °C) is -2.56 ± 0.12.

In the case of CUACAGCAAUAUUACGGAUG, the “self-splicing fitness (ln)” value was -0.683 ± 0.056 (30 °C) and -0.187 ± 0.076 (37 °C).

CUACAGCAAUAUUACGGCAC: the “self-splicing fitness (ln)” value by setting is: (30 °C) -3.29 ± 0.23; (37 °C) -2.45 ± 0.32.

As to CUACAGCAAUAUUACGGUAA, the “self-splicing fitness (ln)” value reads like this: (30 °C) -0.706 ± 0.066; (37 °C) -0.344 ± 0.076.

On to CUACAGCAAUAUUACGGUCU, for which the “self-splicing fitness (ln)” value by setting is: (30 °C) -4.27 ± 0.19; (37 °C) -2.13 ± 0.16.

For CUACAGCAAUAUUACGGUUG, the “self-splicing fitness (ln)” value runs as follows: (30 °C) -1.78 ± 0.078; (37 °C) -1.73 ± 0.091.

With CUACAGCAAUAUUACGUAUU, the “self-splicing fitness (ln)” value was -4.19 ± 0.2 (30 °C) and -2.94 ± 0.18 (37 °C).

In the case of CUACAGCAAUAUUACGUCAG, the “self-splicing fitness (ln)” value (30 °C) is -1.55 ± 0.12 and the “self-splicing fitness (ln)” value (37 °C) was -1.18 ± 0.13.

Consider CUACAGCAAUAUUACGUCAU, for which the “self-splicing fitness (ln)” value was -4.33 ± 0.22 (30 °C) and -3.72 ± 0.19 (37 °C).

Take CUACAGCAAUAUUACGUCGC: the “self-splicing fitness (ln)” value (30 °C) is -4.05 ± 0.3 and the “self-splicing fitness (ln)” value (37 °C) is -2.11 ± 0.23.

Turning to CUACAGCAAUAUUACGUGCA, the “self-splicing fitness (ln)” value (30 °C) was -3.73 ± 0.35 and the “self-splicing fitness (ln)” value (37 °C) is -2.5 ± 0.18.

Consider CUACAGCAAUAUUACGUGGC, for which the “self-splicing fitness (ln)” value (30 °C) is -3.68 ± 0.29 and the “self-splicing fitness (ln)” value (37 °C) was -2.44 ± 0.32.

Take CUACAGCAAUAUUACGUUAG: the “self-splicing fitness (ln)” value was -3.78 ± 0.23 (30 °C) and -2.54 ± 0.14 (37 °C).

For CUACAGCAAUAUUACGUUCG, the “self-splicing fitness (ln)” value was -0.275 ± 0.063 (30 °C) and 0.0364 ± 0.083 (37 °C).

In the case of CUACAGCAAUAUUACGUUGU, the “self-splicing fitness (ln)” value by setting is: (30 °C) -3.66 ± 0.14; (37 °C) -3.95 ± 0.21.

Take CUACAGCAAUAUUACGUUUA: the “self-splicing fitness (ln)” value is, setting by setting: (30 °C) -3.39 ± 0.22; (37 °C) -2.86 ± 0.19.

Regarding CUACAGCAAUAUUACGUUUU, the “self-splicing fitness (ln)” value (30 °C) was -4.17 ± 0.18 and the “self-splicing fitness (ln)” value (37 °C) is -3.26 ± 0.22.

For the sequence CUAGAGCAAUAUUACGAAAA, the “self-splicing fitness (ln)” value (30 °C) was -1.94 ± 0.44.

With CUAGAGCAAUAUUACGAAGG, the “self-splicing fitness (ln)” value runs as follows: (30 °C) -1.22 ± 0.12; (37 °C) -0.403 ± 0.15.

Regarding CUAGAGCAAUAUUACGACCC, the “self-splicing fitness (ln)” value (30 °C) was -1.62 ± 0.38.

Turning to CUAGAGCAAUAUUACGACCG, the “self-splicing fitness (ln)” value reads like this: (30 °C) 0.13 ± 0.13; (37 °C) 0.707 ± 0.18.

For CUAGAGCAAUAUUACGACGG, the “self-splicing fitness (ln)” value by setting is: (30 °C) -0.119 ± 0.12; (37 °C) 0.393 ± 0.17.

With CUAGAGCAAUAUUACGAGCG, the “self-splicing fitness (ln)” value reads like this: (30 °C) 0.131 ± 0.1; (37 °C) 0.74 ± 0.12.

As to CUAGAGCAAUAUUACGCCUU, the “self-splicing fitness (ln)” value reads like this: (30 °C) -3.42 ± 0.19; (37 °C) -0.994 ± 0.24.

Regarding CUAGAGCAAUAUUACGCGAA, the “self-splicing fitness (ln)” value reads like this: (30 °C) -3.1 ± 0.38; (37 °C) -2.09 ± 0.43.

With CUAGAGCAAUAUUACGCUAA, the “self-splicing fitness (ln)” value reads like this: (30 °C) -3 ± 0.23; (37 °C) -2.49 ± 0.25.

Take CUAGAGCAAUAUUACGCUCU: the “self-splicing fitness (ln)” value (30 °C) is -2.43 ± 0.28 and the “self-splicing fitness (ln)” value (37 °C) is -2.8 ± 0.43.

Consider CUAGAGCAAUAUUACGGCCG, for which the “self-splicing fitness (ln)” value by setting is: (30 °C) -0.252 ± 0.15; (37 °C) 0.456 ± 0.27.

Take CUAGAGCAAUAUUACGGCGU: the “self-splicing fitness (ln)” value (30 °C) was -4.02 ± 0.26 and the “self-splicing fitness (ln)” value (37 °C) is -0.833 ± 0.16.

On to CUAGAGCAAUAUUACGGGGU, for which the “self-splicing fitness (ln)” value (37 °C) was -2.6 ± 0.3.

Regarding CUAGAGCAAUAUUACGGGUC, the “self-splicing fitness (ln)” value runs as follows: (30 °C) -4.31 ± 0.25; (37 °C) -3.61 ± 0.39.

For CUAGAGCAAUAUUACGGUGA, the “self-splicing fitness (ln)” value runs as follows: (30 °C) -3.58 ± 0.16; (37 °C) -1.46 ± 0.17.

On to CUAGAGCAAUAUUACGUAGC, for which the “self-splicing fitness (ln)” value (37 °C) is -1.49 ± 0.27.

With CUAGAGCAAUAUUACGUCAU, the “self-splicing fitness (ln)” value runs as follows: (30 °C) -4.42 ± 0.28; (37 °C) -2.58 ± 0.18.

Consider CUAGAGCAAUAUUACGUCGU, for which, under “30 °C”, the “self-splicing fitness (ln)” value is -3.73 ± 0.42.

For CUAGAGCAAUAUUACGUCUA, the “self-splicing fitness (ln)” value is -1.15 ± 0.12 (30 °C) and -0.248 ± 0.18 (37 °C).

Regarding CUAGAGCAAUAUUACGUGAG, the “self-splicing fitness (ln)” value is -0.395 ± 0.074 (30 °C) and 0.0704 ± 0.095 (37 °C).

For CUAGAGCAAUAUUACGUUGU, the “self-splicing fitness (ln)” value (30 °C) was -3.77 ± 0.2 and the “self-splicing fitness (ln)” value (37 °C) is -2.5 ± 0.22.

For the sequence CUAGAGCAAUAUUACGUUUA, the “self-splicing fitness (ln)” value by setting is: (30 °C) -4.4 ± 0.24; (37 °C) -0.83 ± 0.17.

Take CUAUAGCAAUAUUACGACAC: the “self-splicing fitness (ln)” value is, setting by setting: (30 °C) -2.95 ± 0.34; (37 °C) -1.88 ± 0.28.

For the sequence CUAUAGCAAUAUUACGAGGA, the “self-splicing fitness (ln)” value is, setting by setting: (30 °C) -3.62 ± 0.41; (37 °C) -1.73 ± 0.31.

On to CUAUAGCAAUAUUACGAGUG, for which the “self-splicing fitness (ln)” value is, setting by setting: (30 °C) -0.752 ± 0.071; (37 °C) 0.361 ± 0.1.

Consider CUAUAGCAAUAUUACGAGUU, for which the “self-splicing fitness (ln)” value reads like this: (30 °C) -3.04 ± 0.16; (37 °C) -0.864 ± 0.18.

On to CUAUAGCAAUAUUACGAUAA, for which the “self-splicing fitness (ln)” value was -1.1 ± 0.11 (30 °C) and -0.839 ± 0.17 (37 °C).

Turning to CUAUAGCAAUAUUACGCAAG, the “self-splicing fitness (ln)” value (30 °C) was -3.11 ± 0.2 and the “self-splicing fitness (ln)” value (37 °C) was -2.22 ± 0.18.

Take CUAUAGCAAUAUUACGCAUU: the “self-splicing fitness (ln)” value was -5.27 ± 0.38 (30 °C) and -2.95 ± 0.31 (37 °C).

For CUAUAGCAAUAUUACGCCGC, the “self-splicing fitness (ln)” value (37 °C) was -2.27 ± 0.41.

For CUAUAGCAAUAUUACGCGGA, the “self-splicing fitness (ln)” value (30 °C) is -1.13 ± 0.49.

On to CUAUAGCAAUAUUACGGAGG, for which the “self-splicing fitness (ln)” value was -2.7 ± 0.17 (30 °C) and 0.224 ± 0.16 (37 °C).

Turning to CUAUAGCAAUAUUACGGAUA, the “self-splicing fitness (ln)” value (37 °C) is -2.24 ± 0.37.
